For orientation: EC50 means the concentration giving half of the maximal effect. Read a low EC50 as an effect from little substance.

This is an account of results in patent US20140079722A1, “EXTRACELLULAR TARGETED DRUG CONJUGATES” (CENTROSE, LLC, priority 2011, published 2014).

For data set [1], the system named is A549 NSCLC cells. In words: In vitro normal cell cytotoxicity study, carcinoma comparator line. It is filed as cell-based. Particulars: Homo sapiens, A549, 72 h. How it is done:
In vitro normal cell cytotoxicity. The in vitro cytotoxic activity of M53-PEG24-CEN09-106, PEG24-CEN09-106, M53-PEG24-CEN-319, PEG24-CEN-319, proscillaridin and digitoxin against dysadherin positive primary normal human cells and a dysadherin positive human non-small cell lung carcinoma (NSCLC) cell line were tested and compared. The cells used were primary human renal epithelial cells (HREpC), primary human umbilical vein endothelial cells (HUVEC), primary human umbilical artery endothelial cells (HUAEC), and the A549 NSCLC cells. The primary cells were obtained from PromoCell GmbH, Heidelberg, Germany, and the NSCLC cell line A549 was obtained from ATCC. Primary renal epithelial cells were grown in Renal Epithelial Cell Growth Medium 2 (PromoCell GmbH, Heidelberg, Germany). Primary endothelial cells were grown in Endothelial Cell Growth Medium 2 (PromoCell GmbH, Heidelberg, Germany). […] After 72 hrs of exposure to agent, cell viability was evaluated using the Cell Titer-Glo Luminescent Cell Viability Assay (Promega, Madison, Wis.) according to the manufacturer's instructions. Luminescence measurements were performed using a Wallac Victor^2 Model 1420-041 assay plate reader (Perkin Elmer, Gaithersburg, Md.). EC50 values for each test agent were determined using GraphPad Prism 5 software.

Data set [2] has as its system primary human renal epithelial cells (HREpC). The data set can be described thus: In vitro normal cell cytotoxicity. In kind it is cell-based. The settings on record: 72 h. How it is done:
(§1) In vitro normal cell cytotoxicity. The in vitro cytotoxic activity of M53-PEG24-CEN09-106, PEG24-CEN09-106, M53-PEG24-CEN-319, PEG24-CEN-319, proscillaridin and digitoxin against dysadherin positive primary normal human cells and a dysadherin positive human non-small cell lung carcinoma (NSCLC) cell line were tested and compared. The cells used were primary human renal epithelial cells (HREpC), primary human umbilical vein endothelial cells (HUVEC), primary human umbilical artery endothelial cells (HUAEC), and the A549 NSCLC cells. The primary cells were obtained from PromoCell GmbH, Heidelberg, Germany, and the NSCLC cell line A549 was obtained from ATCC. Primary renal epithelial cells were grown in Renal Epithelial Cell Growth Medium 2 (PromoCell GmbH, Heidelberg, Germany). Primary endothelial cells were grown in Endothelial Cell Growth Medium 2 (PromoCell GmbH, Heidelberg, Germany). The NSCLC cell line was grown in RPMI-1640 (HyClone, Thermo Scientific) supplemented with 10% fetal bovine serum. HREpC, HUVEC, HUAEC, and A549 cells were plated in 384 well plates at 1250, 1875, 2500, and 1250 cells/well (respectively) and allowed to incubate for 24 hrs at 37° C., 5% CO2, and 100% humidity. Various concentrations of conjugates M53-PEG24-CEN09-106 and […] and PEG24-CEN09-106 and […] were added to the wells in a total volume of 5 uL of media and the plates were incubated for an additional 72 hrs. After 72 hrs of exposure to agent, cell viability was evaluated using the Cell Titer-Glo Luminescent Cell Viability Assay (Promega, Madison, Wis.) according to the manufacturer's instructions. Luminescence measurements were performed using a Wallac Victor^2 Model 1420-041 assay plate reader (Perkin Elmer, Gaithersburg, Md.). EC50 values for each test agent were determined using GraphPad Prism 5 software.

In data set [3] the test system is primary human umbilical artery endothelial cells (HUAEC). The data set can be described thus: In vitro normal cell cytotoxicity. In kind it is cell-based. The settings on record: Homo sapiens, Endothelial cell, 72 h. As to the method:
as §1

For data set [4], the system named is primary human umbilical vein endothelial cells (HUVEC). The data set can be described thus: In vitro normal cell cytotoxicity. It is filed as cell-based. Particulars: Homo sapiens, 72 h. How it is done:
as §1

Data set [5] has as its target T1, human dysadherin (human, UniProt Q96DB9 22-178).
T1 chain: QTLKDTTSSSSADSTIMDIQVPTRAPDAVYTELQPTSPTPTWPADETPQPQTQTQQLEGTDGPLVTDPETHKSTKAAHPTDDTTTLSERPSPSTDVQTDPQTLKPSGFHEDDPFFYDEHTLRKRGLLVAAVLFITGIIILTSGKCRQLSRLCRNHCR
In words: cell-based or functional assay.

Data set [6] deals with T1, human dysadherin. In words: cell-based or functional assay.
In data set [7] the target is T1, human dysadherin. The data set can be described thus: cell-based or functional assay.
Data set [8] concerns A375. In words: In vitro cancer cell cytotoxicity (CellTiter-Glo cell viability). It is filed as cell-based, human. Particulars: A375 cells, 3 days incubation. The source says: (§2) EDCs were constructed using linker-ready agents PEG24-CEN09-106, PEG24-CEN09-107, PEG24-CEN10-110 and PEG24-CEN-319. As described in Example 1, linker-ready agent PEG24-CEN-319 contain digitoxigenin while the others contain scillarenin. Linker-ready agents PEG24-CEN09-106, PEG24-CEN09-107, PEG24-CEN10-110 all use different linkers. Specifically, PEG24-CEN09-106 and PEG24-CEN09-107 have different sugars in the linker, while PEG24-CEN10-110 contains a longer linker that includes a primary amine.
(§3) All of the cell lines below, except H520, express the Na,K-ATPase with the dysadherin subunit and so present the target of the antibody and drug in close proximity.
On the technique in general: Cellular ATP, detected with luciferase, serves as a proxy for viable cell number.

For data set [9], the system named is A549. Described as above. In kind it is cell-based, human. Particulars: A549 cells, 3 days incubation.
Description: as §2, §3

In data set [10] the test system is PANC1. Described as above. In kind it is cell-based, human. The settings on record: PANC cells, 3 days incubation.
Description: as §2, §3

Data set [11] relates to human cell lines H460, A549, A375, PANC1, and H929. In words: In vitro cancer cell cytotoxicity, statements over the cell line panel. In kind it is cell-based. Particulars: at the highest concentrations tested.
Description: as §2, §3

Data set [12] can be described thus: Pharmacokinetics with varying drug loading (antigen binding ELISA). The settings on record: unconjugated antibody, 1 mg/kg tail vein, SCID beige mice. It is filed as in vivo. How it is done:
Serum was isolated from blood samples taken by retro-orbital blood collection at 1 hour, and 1, 2, 3, 6, and 15 days post-injection. Blood was collected into heparin coated tubes followed by centrifugation (5,000×g, 5 minutes) to isolate plasma.
Antigen capture plates that were prepared by coating wells of 96 well clear bottom ELISA plates with CENP018 (SEQ ID NO: 17) conjugated to BSA at 400 ng BSA-peptide conjugate per well in 100 uL of 200 mM carbonate buffer, pH 9.6 overnight at 4° C. Antigen coated ELISA plates were washed (×3) with PBS pH 7, blocked 30 min with PBS pH 7 containing 1% NFDM (PBS+NFDM), and then washed (×3) with PBS, pH 7. […] Goat anti-mouse IgG alkaline phosphatase (cat. number: A1418, Sigma-Aldrich, St. Louis, Mo.) was diluted 1:15,000 in PBS+NFDM and added (100 uL) to each well, incubated 30 min at RT, and the wells washed (×3) with PBS, pH 7. PNPP at 1 mg/mL in 1M DEA with 50 mM MgCl2, pH 9.8 was added (100 uL per well), and the absorbance at 405 nm was determined using a Wallac Victor^2 Model 1420-041 assay plate reader (Perkin Elmer, Gaithersburg, Md.) every 5 minutes for a total of 6 reads. Absorbance values from known antibody concentration standards were used to determine the concentration of antibody in the serum samples.

Data set [13] in a line: Pharmacokinetics and serum stability, antibody and drug specific ELISA. The settings on record: Balb/c mice, EDC drug loading of 3. It is filed as in vivo, Balb/c mice. How it is done: The steroid drug pharmacokinetics of M53-PEG24-CEN09-106 were measured using the drug specific ELISA described below. The comparison between the two ELISA results (antibody concentrations minus drug concentrations) was used to determine the rate of drug breakdown and thus examine M53-PEG24-CEN09-106 stability.
Serum was isolated from blood samples acquired by retro-orbital blood collection at 1, 2, 4, 8, 16, 26, and 40 days post-injection. […] Plasma concentrations of the steroid drug in M53-PEG24-CEN09-106 were measured as follows. Antigen coated ELISA plates were washed (×3) with PBS pH 7, blocked 30 min with PBS pH 7 containing 1% NFDM (PBS+NFDM), and then washed (×3) with PBS, pH 7. Diluted serum samples and standard curves of M53-PEG24-CEN09-106 were prepared in the above blocking buffer and applied to coated wells, incubated 30 min at RT, and the wells were washed (×3) with PBS, pH 7. Biotinylated 25C2E3 (a monoclonal IgG1 antibody specific for the steroid portion of PEG24-CEN09-106 and conjugated to biotin [Thermo Scientific, PN 21911]) was diluted to 100 ng/mL in PBS+NFDM and added (100 uL) to each well, incubated 30 min at RT, and the wells washed (×3) with PBS, pH 7. PNPP at 1 mg/mL in 1M DEA with 50 mM MgCl2, pH 9.8 was added (100 uL per well), and the absorbance at 405 nm was determined using a Wallac Victor^2 Model 1420-041 assay plate reader (Perkin Elmer, Gaithersburg, Md.) every 5 minutes for a total of 6 reads.
For both ELISAs, absorbance values from known standards were plotted as absorbance over time, generating a linear slope for each concentration. The slopes generated were then plotted against the respective concentrations of the standards, creating a second linear plot. The absorbance values for the unknown serum samples were plotted over time, establishing a slope for unknown sample. The linear estimate from the slope versus concentration plot was then used to extrapolate concentrations for each unknown sample based on their slope.
To determine serum stability of the intact EDC (drug release from the antibody over time) in these samples, the ratio of the slopes of serum decay of the drug portion to the serum decay of the antibody portion were calculated.
On the technique in general: ELISA stands for enzyme-linked immunosorbent assay.

Data set [14] deals with T2, peptide CENP018 (human, not fully specified).
T2 construct: also called 17
T2 peptide: PTRAPDAVYTELQC
In words: immunoaffinity chromatography on CENP018 coupled to SulfoLink resin.

Ends that are not written are not given here.

Take `C[C@H]1O[C@@H](O[C@H]2[C@@H](O)C[C@H](O[C@H]3[C@@H](O)C[C@H](O[C@H]4CC[C@@]5(C)[C@H](CC[C@@H]6[C@@H]5CC[C@]5(C)[C@@H](C7=CC(=O)OC7)CC[C@]65O)C4)O[C@@H]3C)O[C@@H]2C)C[C@H](O)[C@@H]1O` [Digitoxin]: the EC50 in data set [1] is 17 nM; in [2] it was 135 nM; in data set [3], 47 nM; in data set [4] it was 39 nM.

For `C[C@@H]1O[C@@H](O[C@@H]2C=C3CC[C@@H]4[C@H](CC[C@]5(C)[C@@H](c6ccc(=O)oc6)CC[C@]45O)[C@@]3(C)CC2)[C@H](O)[C@H](O)[C@H]1O` [Proscillaridin], the EC50 amounted to 2.1 nM in [1], 10 nM in data set [2], 5.6 nM in [3] and 5.6 nM in data set [4].

B1: M53-PEG24-CEN09-106 (antibody, V domains shown)
VH: EVQLVESGGGLVQPKGTLKLSCAASGFSFNTHAMNWVRQAPGKSLEWVARTMSKSNNYATYYADSVKDRFIIRADDSQSMLYLQMNNLKTEDTAMYYCVRDDPKRGMDYWGQGTSVTVSS
VL: GIVMSQSPSSLAVSVGEKVTMSCKPSQSLLYSRNQKIYLAWYQQKPGQSPKLLIYWASTRESGVPDRFTGSGSGTDFTLIISSVRAEDLAVYYCQQYYNYPLTFGAGTKLELKR
modifications: PEG24-CEN09-106 on reduced cysteine thiols; positions not given; PEG24-CEN09-106 (scillarenin 4-amino-xyloside PEG24 maleimide linker-drug) on reduced cysteine thiols; positions not given
As for B1, the “EC50, in vitro activity against A549 cells” value in data set [5] came to 1.9 nM. Besides, in data set [6], the “EC50, cytotoxicity (CellTiter-Glo cell viability), A375 cells” value is 0.4 nM; the “EC50, cytotoxicity (CellTiter-Glo cell viability), A549 cells” value worked out at 0.2 nM; the “EC50, cytotoxicity (CellTiter-Glo cell viability), H460 cells” value worked out at 0.3 nM; the “EC50, cytotoxicity (CellTiter-Glo cell viability), H929 cells” value worked out at 0.1 nM. Also, the “EC50, cytotoxicity (CellTiter-Glo cell viability), PANC cells” value in data set [6] is 0.3 nM. In data set [7], the “EC50, cytotoxicity, A549 cells (drug alone, combination study)” value stood at 0.3 nM.

B2: M53 (antibody)
heavy: EVQLVESGGGLVQPKGTLKLSCAASGFSFNTHAMNWVRQAPGKSLEWVARTMSKSNNYATYYADSVKDRFIIRADDSQSMLYLQMNNLKTEDTAMYYCVRDDPKRGMDYWGQGTSVTVSSAKTTPPSVYPLAPGSAAQTNSMVTLGCLVKGYFPEPVTVTWNSGSLSSGVHTFPAVLQSDLYTLSSSVTVPSSTWPSETVTCNVAHPASSTKVDKKIE
light: GIVMSQSPSSLAVSVGEKVTMSCKPSQSLLYSRNQKIYLAWYQQKPGQSPKLLIYWASTRESGVPDRFTGSGSGTDFTLIISSVRAEDLAVYYCQQYYNYPLTFGAGTKLELKRADAAPTVSIFPPSSEQLTSGGASVVCFLNNFYPKDINVKWKIDGSERQNGVLNSWTDQDSKDSTYSMSSTLTLTKDEYERHNSYTCEATHKTSTSPIVKSFNR
For the molecule B2, the results for the EC50 in data set [8], in data set [9] and in data set [10] were over 2000 nM, over 5000 nM and over 5000 nM, respectively. In [11], the “cytotoxicity of antibody alone” value was “inactive”. The “serum half-life of detectable (by antigen binding) antibody” value in data set [12] is given as “approximately 6 days”. Moreover, the “serum half-life of the antibody portion” value in data set [13] (1 mg/kg tail vein) was found to be 11.9 days; in data set [13] (10 mg/kg tail vein) it was 10.3 days.

B3: anti-FXYD5 scFv003 (scFv)
scFv: ECQLVESGGGLVQPKGTLKLSCAASGFSFNTHAMNWVRQAPGKSLEWVARTMSKSNNYATYYADSVKDRFIISRDDSQSMLYLQMNNLKTEDTAMYYCVRDDPKRGMDYWGQGTSVTVSSGGGGSGGGGSGGGGSGIVMSQSPSSLAVSVGEKVTMSCKPSQSLLYSRNQKIYLAWYQQKPGQSPKLLIYWASTRESGVPDRFTGSGSGTDFTLIISSVRAEDLAVYYCQQYYNYPLTFGAGTKLELK
notes: Unconjugated scFv, purified from E. coli lysate on CENP018 resin; also called CENscFv003
As for B3, the binding result in data set [14] was “binds”.
